This is an account of results in US6670328 (INSTITUT PASTEUR DE LILLE, dated 2003).

Assay [1] addresses T1, LFA-1 (heterodimeric CD11a/CD18) (human, UniProt P20701 26-1170; P05107 23-769).
T1 construct: whole, on cells; Endogenous LFA-1 on Jurkat cells (and on human PBMC) in the cell assays; In the BIAcore assay and the co-immunoprecipitations it was the whole heterodimer from octylthioglucoside lysates of Jurkat cells; also called LFA-1 molecule; LFA-1 counter receptor
Kind of assay: competition on Jurkat cells at 4 C; HI111 at 1 microg/mL against 35S-labelled 3D-ICAM-1/Fc.

The next assay addresses T2, CD44 on Jurkat cells (human, UniProt P16070 21-742).
T2 construct: whole, on cells
Put plainly: co-immunoprecipitation with anti-CD44 mAb from lysates of Jurkat cells incubated with 300 ng/mL ESM-1; ESM-1 ELISA of eluate. The protocol: (§1) FIGS. 17A–B: An anti-CD11a mAb coimmunoprecipitates ESM-1 with LFA-1 and increases ESM-1 binding to Jurkat cells. A. Coimmunoprecipitation of ESM-1 with LFA-1 : Jurkat cells were incubated with ESM-1 for 1 hour at 4° C. and immunoprecipitations were done with different mAbs according to the procedure previously described (none, anti-ESM-1 (MEC15), anti-CD3, anti-CD11a (1), ie clone HI111, anti-CD11a (2), ie clone G43-25B anti-CD18, anti-CD44, anti-CD2). Beads were washed and eluted. ESM-1 contents from eluates were analyzed by a specific ELISA. B. Activation of the binding of ESM-1 by an anti-CD11a mAb: Jurkat cells were firstly incubated in binding medium with different mAbs (none, anti-CD11a (1), anti-CD11a (2), IgG control) for 1 h at room temperature and secondly with ESM-1 for 1 h at 4° C. Cells were washed and lysed. ESM-1 was quantified by a specific ELISA in lysates (n=5).

Assay [2] has as its target T1, LFA-1 (heterodimeric CD11a/CD18). Kind of assay: BIAcore, purified ESM-1 (5 concentrations, 50 to 300 nM) over LFA-1 from Jurkat lysate captured by immobilized HI111, 25 C, PBS with 1 mM MgCl2 and 1 mM MnCl2. The protocol:
LFA-1 molecules from the Jurkat lysates could only be fixed by immuno-affinity procedure. 200 millions of Jurkat cells were lysed in 2 mL of lysis buffer (PBS, 1 mM MgCl2, 1 mM MnCl2, complete anti-proteases cocktail EDTA-free and 5 mM octylthioglucoside) for 30 min at 4° C. After removal of insoluble material by centrifugation and incubation in a sonication bath, the lysate was injected at a flow rate of 5 microL/min for 30 min at 25° C. in order to immobilize approximatively 1500 RU of LFA-1 molecules. Next, CD11a mAb (G43-25B), CD18 mAb and purified ESM-1 were diluted in running buffer (PBS, 1 mM MgCl2, 1 mM MnCl2) and injected at a flow rate of 5 microL/min for 5 min at 25° C. The association rate constant (ka) and the dissociation rate constant (kd) were fitted calculated according to the BIAevaluation software version 3.1 provided by the manufacturer. The affinity constant was calculated from the equation Kd=kd/ka.
To better define the interaction between LFA-1 and ESM-1, a real-time observation by BIAcore analysis was carried out. Sensor chip was filled with detergent lysates of Jurkat cells in order to capture functional LFA-1 molecules. […] The binding of heterodimeric LFA-1 to mAb coated chip was consistently detected. […] No interaction was detected between the mAb coated surface or control surface and ESM-1 at the highest concentration used in this experiment (data not shown).

Another assay deals with T3, CD2 on Jurkat cells (human, UniProt P06729 25-351).
T3 construct: whole, on cells
T3 sequence (looked up): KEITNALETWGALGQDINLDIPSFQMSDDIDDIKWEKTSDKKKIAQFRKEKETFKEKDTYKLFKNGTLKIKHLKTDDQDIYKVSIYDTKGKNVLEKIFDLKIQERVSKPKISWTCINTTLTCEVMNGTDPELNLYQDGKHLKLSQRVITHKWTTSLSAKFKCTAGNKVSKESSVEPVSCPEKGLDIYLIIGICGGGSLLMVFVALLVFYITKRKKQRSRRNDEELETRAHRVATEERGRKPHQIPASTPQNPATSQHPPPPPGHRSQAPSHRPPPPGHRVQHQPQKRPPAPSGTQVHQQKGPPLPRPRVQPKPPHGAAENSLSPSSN
Kind of assay: co-immunoprecipitation with anti-CD2 mAb from lysates of Jurkat cells incubated with 300 ng/mL ESM-1; ESM-1 ELISA of eluate. The protocol:
as §1

Assay [3] addresses T1, LFA-1 (heterodimeric CD11a/CD18). Put plainly: BIAcore, from the ratio of the rate constants; ESM-1 over LFA-1 captured by immobilized HI111. The protocol:
The affinity constant was calculated from the equation Kd=kd/ka.
To better define the interaction between LFA-1 and ESM-1, a real-time observation by BIAcore analysis was carried out. Sensor chip was filled with detergent lysates of Jurkat cells in order to capture functional LFA-1 molecules. Specific binding of the heterodimeric form of LFA-1 to the anti-CD11a mAb coupled censorship was observed. In this assay, anti-CD11a mAb (HI111) was immobilized on the surface of the carboxymethyl 5 sensor chip as described in Materials and Methods. The binding of heterodimeric LFA-1 to mAb coated chip was consistently detected. The presence of both CD11a chain and CD18 chain was checked by injecting either another anti-CD11a mAb (G43-25B), or an anti-CD18 mAb in the LFA-1 captured channel. As reported in FIG. 18A, LFA-1 was strongly captured under its heterodimeric form, which was essential to keep functionality of LFA-1. Next, we have also examined the interaction of LFA-1 and purified human ESM-1 by BIAcore biosensor. […] No interaction was detected between the mAb coated surface or control surface and ESM-1 at the highest concentration used in this experiment (data not shown). Purified ESM-1 was then injected at indicated concentrations to the LFA-1 captured surface, and the response (in resonance units) versus time (in seconds) was recorded. […]

Assay [4] concerns the target T4, 3D-ICAM-1/Fc chimeric protein (three first extracellular domains of ICAM-1 fused to the Fc fragment of human … (human, UniProt P05362 28-311, limits assumed, 35S methionine metabolic label in the ICAM-1 binding assays)).
T4 construct: domain: three first extracellular domains of ICAM-1; Expressed in 293 cells and purified on an anti-human Fc agarose column; also called soluble ICAM-1; soluble ICAM-1/Fc; not shown: Fc fragment of human IgG1
Kind of assay: coprecipitation.

T1 sequence (P20701 26-1170, chain 1 of 2): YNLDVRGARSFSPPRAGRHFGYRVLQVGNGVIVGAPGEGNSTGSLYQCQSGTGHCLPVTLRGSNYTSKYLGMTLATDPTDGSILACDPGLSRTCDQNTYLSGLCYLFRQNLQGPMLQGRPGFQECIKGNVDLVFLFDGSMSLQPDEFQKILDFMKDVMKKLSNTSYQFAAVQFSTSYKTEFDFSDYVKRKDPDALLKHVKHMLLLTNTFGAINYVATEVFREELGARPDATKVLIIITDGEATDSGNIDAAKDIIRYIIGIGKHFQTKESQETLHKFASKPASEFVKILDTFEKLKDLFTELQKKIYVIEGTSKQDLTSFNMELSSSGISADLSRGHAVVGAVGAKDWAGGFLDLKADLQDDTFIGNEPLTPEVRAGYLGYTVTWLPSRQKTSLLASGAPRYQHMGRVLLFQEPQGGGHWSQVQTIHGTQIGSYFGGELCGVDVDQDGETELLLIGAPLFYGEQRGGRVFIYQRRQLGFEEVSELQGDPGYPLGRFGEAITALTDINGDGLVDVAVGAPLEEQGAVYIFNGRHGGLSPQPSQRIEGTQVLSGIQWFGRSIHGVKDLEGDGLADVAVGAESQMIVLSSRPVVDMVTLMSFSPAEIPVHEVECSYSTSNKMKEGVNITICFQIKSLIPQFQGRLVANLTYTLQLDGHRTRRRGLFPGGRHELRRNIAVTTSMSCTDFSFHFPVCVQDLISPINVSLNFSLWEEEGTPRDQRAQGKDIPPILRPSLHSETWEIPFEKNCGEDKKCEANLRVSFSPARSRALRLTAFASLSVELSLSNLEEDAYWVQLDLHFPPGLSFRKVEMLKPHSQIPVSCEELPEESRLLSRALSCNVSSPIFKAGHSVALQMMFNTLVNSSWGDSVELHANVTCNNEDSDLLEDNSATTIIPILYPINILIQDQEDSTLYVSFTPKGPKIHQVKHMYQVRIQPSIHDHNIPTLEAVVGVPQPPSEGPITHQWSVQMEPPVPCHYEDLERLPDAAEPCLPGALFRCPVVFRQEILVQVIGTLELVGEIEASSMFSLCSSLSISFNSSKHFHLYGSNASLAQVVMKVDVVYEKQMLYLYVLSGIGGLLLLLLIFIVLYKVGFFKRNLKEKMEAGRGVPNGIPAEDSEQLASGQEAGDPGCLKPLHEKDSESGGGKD
T1 sequence (P05107 23-769, chain 2 of 2): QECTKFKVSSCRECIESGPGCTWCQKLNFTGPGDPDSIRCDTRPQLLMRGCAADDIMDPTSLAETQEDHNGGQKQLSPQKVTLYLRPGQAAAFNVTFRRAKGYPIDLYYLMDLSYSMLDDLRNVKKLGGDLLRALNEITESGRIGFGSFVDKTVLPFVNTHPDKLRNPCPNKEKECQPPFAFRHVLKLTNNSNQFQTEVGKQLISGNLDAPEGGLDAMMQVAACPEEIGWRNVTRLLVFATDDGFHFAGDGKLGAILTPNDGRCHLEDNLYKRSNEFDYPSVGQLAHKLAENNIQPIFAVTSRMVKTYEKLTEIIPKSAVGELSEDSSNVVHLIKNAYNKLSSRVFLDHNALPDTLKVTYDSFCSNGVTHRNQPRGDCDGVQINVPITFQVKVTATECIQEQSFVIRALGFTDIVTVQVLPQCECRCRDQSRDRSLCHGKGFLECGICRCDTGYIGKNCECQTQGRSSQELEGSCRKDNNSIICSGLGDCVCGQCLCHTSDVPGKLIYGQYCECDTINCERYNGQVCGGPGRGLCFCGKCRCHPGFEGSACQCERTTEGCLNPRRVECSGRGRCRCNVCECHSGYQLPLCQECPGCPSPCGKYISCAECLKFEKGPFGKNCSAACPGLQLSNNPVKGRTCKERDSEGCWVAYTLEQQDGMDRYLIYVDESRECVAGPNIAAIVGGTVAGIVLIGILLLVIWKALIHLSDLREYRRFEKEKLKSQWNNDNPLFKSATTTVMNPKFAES
T2 sequence (P16070 21-742): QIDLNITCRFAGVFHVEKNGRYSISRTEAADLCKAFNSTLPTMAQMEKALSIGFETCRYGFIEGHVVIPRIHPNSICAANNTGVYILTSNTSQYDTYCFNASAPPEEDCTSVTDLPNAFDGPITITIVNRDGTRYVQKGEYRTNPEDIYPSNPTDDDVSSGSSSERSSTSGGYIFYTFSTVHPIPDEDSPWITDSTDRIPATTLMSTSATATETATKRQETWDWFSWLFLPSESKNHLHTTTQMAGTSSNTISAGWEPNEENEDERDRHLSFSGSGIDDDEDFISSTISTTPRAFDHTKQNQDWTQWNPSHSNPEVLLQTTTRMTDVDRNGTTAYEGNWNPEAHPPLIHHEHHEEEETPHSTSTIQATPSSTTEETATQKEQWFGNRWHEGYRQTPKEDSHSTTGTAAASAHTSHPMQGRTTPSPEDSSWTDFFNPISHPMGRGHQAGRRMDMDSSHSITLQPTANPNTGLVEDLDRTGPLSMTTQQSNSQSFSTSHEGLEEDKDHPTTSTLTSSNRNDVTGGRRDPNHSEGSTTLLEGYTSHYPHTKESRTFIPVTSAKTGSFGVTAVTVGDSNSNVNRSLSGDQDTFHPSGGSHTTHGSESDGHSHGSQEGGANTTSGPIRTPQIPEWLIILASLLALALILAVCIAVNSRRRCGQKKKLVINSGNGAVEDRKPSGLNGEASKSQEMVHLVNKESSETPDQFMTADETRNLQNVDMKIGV
T4 sequence (P05362 28-311 limits assumed, stated change not applied): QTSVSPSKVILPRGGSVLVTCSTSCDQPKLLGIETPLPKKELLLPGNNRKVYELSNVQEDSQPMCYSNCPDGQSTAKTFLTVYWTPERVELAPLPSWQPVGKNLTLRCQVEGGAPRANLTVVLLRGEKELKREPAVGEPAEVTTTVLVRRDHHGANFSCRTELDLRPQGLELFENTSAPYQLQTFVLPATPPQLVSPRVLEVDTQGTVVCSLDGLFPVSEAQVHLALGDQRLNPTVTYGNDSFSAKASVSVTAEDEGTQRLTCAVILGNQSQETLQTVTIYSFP

anti-CD11a mAb clone HI111 (antibody) yielded a labelled ICAM-1 still bound (cpm) in assay [1] of 837 cpm.

B1: secreted ESM-1 protein (Endothelial Cell Specific Molecule-1), purified wild-type form (ligand)
chain: WSNNYAVDCPQHCDSSECKSSPRCKRTVLDDCGCCRVCAAGRGETCYRTVSGMDGMKCGPCLRCQPSNCEDPFGEEFGICKDCPYGTFGMDCRETCNCQSCICDRGTGKCLKFPFFQYSVTKSSNRFVSLTEHDMASGDGNIVREEVVKENAAGSPVMRKWLNPR
notes: The secreted form runs at about 50 kD and is described as glycosylated (a proteoglycan); also called ESM/WT; extracellular ESM-1
For the molecule B1, the binding result (with CD44 on Jurkat cells; with CD2 on Jurkat cells; in assay [4]) was “no binding” in each case. The molecule further gave a koff in assay [2] of 0.000825 s⁻¹. In assay [2], the kon is 44100 M⁻¹ s⁻¹. Moreover, the Kd in assay [3] came to 18.7 nM.
